# According to IntAct's records for PubMed 28683311:
# Tests used:
# [1] = biological target: limd1_human LIMD1 (UniProt Q9UGP4)
# [2] = biological target: tnr6a_human TNRC6A (UniProt Q8NDV7)
# [3] = biological target: limd1_human LIMD1 (UniProt Q9UGP4); remark: listed apart in the source
# [4] = biological target: limd1_human LIMD1 (UniProt Q9UGP4); remark: listed apart in the source
# Sequence of limd1_human LIMD1 (Q9UGP4 whole entry): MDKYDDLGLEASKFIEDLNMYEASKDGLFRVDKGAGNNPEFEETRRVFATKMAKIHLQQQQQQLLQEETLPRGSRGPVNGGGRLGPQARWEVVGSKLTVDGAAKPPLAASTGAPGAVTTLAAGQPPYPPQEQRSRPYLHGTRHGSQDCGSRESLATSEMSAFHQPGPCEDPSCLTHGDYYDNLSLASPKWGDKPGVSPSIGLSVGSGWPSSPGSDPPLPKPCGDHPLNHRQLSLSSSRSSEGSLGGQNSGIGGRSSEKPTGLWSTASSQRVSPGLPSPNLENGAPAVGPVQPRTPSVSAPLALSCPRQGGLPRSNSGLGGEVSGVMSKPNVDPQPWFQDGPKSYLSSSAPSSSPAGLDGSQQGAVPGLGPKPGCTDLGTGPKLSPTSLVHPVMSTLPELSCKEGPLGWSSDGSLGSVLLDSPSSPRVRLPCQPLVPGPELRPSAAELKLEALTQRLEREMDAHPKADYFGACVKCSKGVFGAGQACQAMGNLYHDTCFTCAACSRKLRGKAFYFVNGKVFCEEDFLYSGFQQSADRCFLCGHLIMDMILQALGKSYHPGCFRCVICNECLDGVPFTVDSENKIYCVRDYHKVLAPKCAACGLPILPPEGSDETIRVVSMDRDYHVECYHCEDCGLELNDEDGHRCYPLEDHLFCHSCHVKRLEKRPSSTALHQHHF
# Sequence of tnr6a_human TNRC6A (Q8NDV7 whole entry): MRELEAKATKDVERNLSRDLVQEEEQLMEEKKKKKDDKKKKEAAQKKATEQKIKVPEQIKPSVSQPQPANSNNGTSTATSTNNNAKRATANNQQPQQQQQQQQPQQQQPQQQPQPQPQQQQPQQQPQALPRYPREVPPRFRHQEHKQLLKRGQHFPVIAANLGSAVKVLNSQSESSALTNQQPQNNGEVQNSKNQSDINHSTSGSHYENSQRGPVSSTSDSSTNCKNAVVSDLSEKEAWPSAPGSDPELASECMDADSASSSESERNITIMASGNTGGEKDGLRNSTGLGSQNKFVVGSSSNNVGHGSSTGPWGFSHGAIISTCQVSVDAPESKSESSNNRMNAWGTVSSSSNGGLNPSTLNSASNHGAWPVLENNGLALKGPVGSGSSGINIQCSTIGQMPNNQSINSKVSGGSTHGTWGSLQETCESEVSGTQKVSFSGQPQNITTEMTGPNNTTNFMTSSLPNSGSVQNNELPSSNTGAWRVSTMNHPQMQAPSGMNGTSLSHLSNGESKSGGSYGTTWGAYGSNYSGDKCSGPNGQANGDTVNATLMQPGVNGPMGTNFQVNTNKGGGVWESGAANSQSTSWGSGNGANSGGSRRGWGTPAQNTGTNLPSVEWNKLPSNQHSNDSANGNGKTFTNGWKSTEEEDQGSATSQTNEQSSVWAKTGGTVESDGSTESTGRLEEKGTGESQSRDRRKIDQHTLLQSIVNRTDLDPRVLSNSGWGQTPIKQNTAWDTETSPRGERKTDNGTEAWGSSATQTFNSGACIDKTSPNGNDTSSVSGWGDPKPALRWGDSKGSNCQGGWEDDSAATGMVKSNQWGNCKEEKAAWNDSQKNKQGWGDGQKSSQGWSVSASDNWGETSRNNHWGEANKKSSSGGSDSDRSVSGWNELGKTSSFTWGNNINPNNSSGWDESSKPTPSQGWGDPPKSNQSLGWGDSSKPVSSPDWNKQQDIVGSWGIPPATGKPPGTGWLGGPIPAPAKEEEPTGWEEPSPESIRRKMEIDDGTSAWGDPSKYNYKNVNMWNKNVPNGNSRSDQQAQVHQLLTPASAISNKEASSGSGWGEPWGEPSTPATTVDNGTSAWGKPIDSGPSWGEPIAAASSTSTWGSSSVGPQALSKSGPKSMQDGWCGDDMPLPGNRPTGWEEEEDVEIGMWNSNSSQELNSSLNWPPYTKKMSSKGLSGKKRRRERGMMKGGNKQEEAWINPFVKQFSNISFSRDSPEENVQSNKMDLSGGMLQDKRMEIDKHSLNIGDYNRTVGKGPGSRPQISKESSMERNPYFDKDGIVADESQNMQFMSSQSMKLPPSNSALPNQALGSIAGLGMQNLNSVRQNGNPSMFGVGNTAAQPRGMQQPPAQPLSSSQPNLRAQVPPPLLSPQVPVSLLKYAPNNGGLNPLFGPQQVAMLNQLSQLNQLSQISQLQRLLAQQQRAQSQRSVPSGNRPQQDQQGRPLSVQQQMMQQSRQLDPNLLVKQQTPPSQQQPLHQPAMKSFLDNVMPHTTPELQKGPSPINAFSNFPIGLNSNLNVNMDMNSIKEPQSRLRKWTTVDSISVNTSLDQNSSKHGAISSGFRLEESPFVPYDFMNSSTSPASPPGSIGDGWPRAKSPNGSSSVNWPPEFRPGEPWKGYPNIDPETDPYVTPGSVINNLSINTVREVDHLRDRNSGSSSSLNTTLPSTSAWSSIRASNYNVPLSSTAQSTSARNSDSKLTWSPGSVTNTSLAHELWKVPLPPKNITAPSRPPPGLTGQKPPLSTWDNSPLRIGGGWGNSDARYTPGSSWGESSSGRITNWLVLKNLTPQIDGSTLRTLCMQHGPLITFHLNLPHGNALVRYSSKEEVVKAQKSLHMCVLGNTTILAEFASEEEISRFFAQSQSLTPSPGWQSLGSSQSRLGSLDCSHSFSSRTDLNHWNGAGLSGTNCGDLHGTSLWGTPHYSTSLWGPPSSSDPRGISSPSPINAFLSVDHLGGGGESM
effect of a mutation on the interaction [1],effect of a mutation on the interaction [2],effect of a mutation on the interaction [3],effect of a mutation on the interaction [4],Substance
with no effect,,,,Protein argonaute-4 (Homo sapiens) (from UniProt Q9HCK5) S377E
,with no effect,decreasing interaction strength,,"Protein argonaute-2 (Homo sapiens), Q9UKV8 S387A"
decreasing interaction strength,,,,Protein argonaute-4 (Homo sapiens) (from UniProt Q9HCK5) S377A
,,increasing interaction strength,with no effect,"Protein argonaute-2 (Homo sapiens), Q9UKV8 S387E"
